# Test results taken from US20240011017A1 (Genentech, published 2024).
# T1: VZV protein gC, soluble (captured on beads or assayed directly in supernatants) (Varicella zoster virus, UniProt P09256 54-559)
# T1 construct: also called VZV gC
# T1 sequence: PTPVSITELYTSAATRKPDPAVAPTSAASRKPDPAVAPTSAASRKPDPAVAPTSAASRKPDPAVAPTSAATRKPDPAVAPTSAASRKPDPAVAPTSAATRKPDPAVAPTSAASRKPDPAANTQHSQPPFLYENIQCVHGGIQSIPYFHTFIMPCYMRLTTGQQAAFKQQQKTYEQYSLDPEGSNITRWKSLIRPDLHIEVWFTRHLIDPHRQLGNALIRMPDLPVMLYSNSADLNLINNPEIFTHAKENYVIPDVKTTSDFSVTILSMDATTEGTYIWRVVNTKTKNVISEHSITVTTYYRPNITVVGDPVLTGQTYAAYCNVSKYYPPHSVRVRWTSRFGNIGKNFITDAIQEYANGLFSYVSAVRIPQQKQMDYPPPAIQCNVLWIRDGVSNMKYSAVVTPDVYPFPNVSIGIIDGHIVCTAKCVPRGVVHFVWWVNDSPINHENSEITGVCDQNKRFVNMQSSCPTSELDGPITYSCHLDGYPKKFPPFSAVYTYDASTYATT
# T2: MUSK expressed on cells (gD-GPI construct or full-length protein) (human, UniProt O15146 24-869)
# T2 construct: whole, on cells
# T2 sequence: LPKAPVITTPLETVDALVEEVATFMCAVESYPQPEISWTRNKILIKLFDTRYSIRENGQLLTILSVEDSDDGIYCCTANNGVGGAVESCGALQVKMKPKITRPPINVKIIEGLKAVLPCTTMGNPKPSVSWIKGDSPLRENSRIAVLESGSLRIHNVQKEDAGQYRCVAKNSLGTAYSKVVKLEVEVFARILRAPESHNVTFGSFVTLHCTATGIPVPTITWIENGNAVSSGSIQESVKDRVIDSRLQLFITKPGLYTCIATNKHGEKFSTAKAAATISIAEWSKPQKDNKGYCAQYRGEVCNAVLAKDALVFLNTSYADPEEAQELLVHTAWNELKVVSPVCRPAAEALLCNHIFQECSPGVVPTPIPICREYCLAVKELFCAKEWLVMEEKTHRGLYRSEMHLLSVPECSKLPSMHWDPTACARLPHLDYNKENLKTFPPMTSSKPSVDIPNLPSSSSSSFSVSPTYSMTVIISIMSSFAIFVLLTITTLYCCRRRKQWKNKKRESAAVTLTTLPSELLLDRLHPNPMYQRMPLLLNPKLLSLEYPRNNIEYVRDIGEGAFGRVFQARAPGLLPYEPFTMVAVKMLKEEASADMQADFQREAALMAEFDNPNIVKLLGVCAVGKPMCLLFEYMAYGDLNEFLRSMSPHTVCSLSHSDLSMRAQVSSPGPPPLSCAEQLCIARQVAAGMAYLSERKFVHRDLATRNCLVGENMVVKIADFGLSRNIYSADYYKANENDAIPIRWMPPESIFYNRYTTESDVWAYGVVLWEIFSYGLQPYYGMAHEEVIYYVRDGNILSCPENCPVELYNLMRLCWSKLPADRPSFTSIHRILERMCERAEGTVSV
# T3: HHV8 protein KCP expressed on cells (gD-GPI construct or full-length protein) (Human herpesvirus 8, UniProt Q2HRD4 20-522)
# T3 construct: also called HHV8 KCP
# T3 sequence: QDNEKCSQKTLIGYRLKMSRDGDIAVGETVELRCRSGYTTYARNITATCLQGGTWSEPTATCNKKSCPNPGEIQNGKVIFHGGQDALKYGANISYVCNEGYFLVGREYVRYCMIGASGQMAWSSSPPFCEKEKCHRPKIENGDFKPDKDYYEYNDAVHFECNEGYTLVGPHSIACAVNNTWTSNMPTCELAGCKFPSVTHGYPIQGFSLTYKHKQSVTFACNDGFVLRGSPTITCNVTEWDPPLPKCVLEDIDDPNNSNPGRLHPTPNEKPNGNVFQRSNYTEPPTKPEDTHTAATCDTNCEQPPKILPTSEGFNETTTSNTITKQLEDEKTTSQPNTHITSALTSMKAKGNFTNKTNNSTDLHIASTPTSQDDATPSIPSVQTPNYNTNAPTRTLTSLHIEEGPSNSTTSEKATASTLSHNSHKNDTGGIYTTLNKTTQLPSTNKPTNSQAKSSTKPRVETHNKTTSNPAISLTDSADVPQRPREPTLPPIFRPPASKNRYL
# B1: ICAM1 expressed on cells (gD-GPI construct or full-length protein) (receptor)
# chain: QTSVSPSKVILPRGGSVLVTCSTSCDQPKLLGIETPLPKKELLLPGNNRKVYELSNVQEDSQPMCYSNCPDGQSTAKTFLTVYWTPERVELAPLPSWQPVGKNLTLRCQVEGGAPRANLTVVLLRGEKELKREPAVGEPAEVTTTVLVRRDHHGANFSCRTELDLRPQGLELFENTSAPYQLQTFVLPATPPQLVSPRVLEVDTQGTVVCSLDGLFPVSEAQVHLALGDQRLNPTVTYGNDSFSAKASVSVTAEDEGTQRLTCAVILGNQSQETLQTVTIYSFPAPNVILTKPEVSEGTEVTVKCEAHPRAKVTLNGVPAQPLGPRAQLLLKATPEDNGRSFSCSATLEVAGQLIHKNQTRELRVLYGPRLDERDCPGNWTWPENSQQTPMCQAWGNPLPELKCLKDGTFPLPIGESVTVTRDLEGTYLCRARSTQGEVTRKVTVNVLSPRYEIVIITVVAAAVIMGTAGLSTYLYNRQRKIKKYRLQQAQKGTPMKPNTQATPP
# notes: whole, on cells
# B2: VZV protein gB, soluble (captured on beads or assayed directly in supernatants) (other)
# chain: VSPSSFYESLQVEPTQSEDITRSAHLGDGDEIREAIHKSQDAETKPTFYVCPPPTGSTIVRLEPTRTCPDYHLGKNFTEGIAVVYKENIAAYKFKATVYYKDVIVSTAWAGSSYTQITNRYADRVPIPVSEITDTIDKFGKCSSKATYVRNNHKVEAFNEDKNPQDMPLIASKYNSVGSKAWHTTNDTYMVAGTPGTYRTGTSVNCIIEEVEARSIFPYDSFGLSTGDIIYMSPFFGLRDGAYREHSNYAMDRFHQFEGYRQRDLDTRALLEPAARNFLVTPHLTVGWNWKPKRTEVCSLVKWREVEDVVRDEYAHNFRFTMKTLSTTFISETNEFNLNQIHLSQCVKEEARAIINRIYTTRYNSSHVRTGDIQTYLARGGFVVVFQPLLSNSLARLYLQELVRENTNHSPQKHPTRNTRSRRSVPVELRANRTITTTSSVEFAMLQFTYDHIQEHVNEMLARISSSWCQLQNRERALWSGLFPINPSALASTILDQRVKARILGDVISVSNCPELGSDTRIILQNSMRVSGSTTRCYSRPLISIVSLNGSGTVEGQLGTDNELIMSRDLLEPCVANHKRYFLFGHHYVYYEDYRYVREIAVHDVGMISTYVDLNLTLLKDREFMPLQVYTRDELRDTGLLDYSEIQRRNQMHSLRFYDIDKVVQYDSGTAIMQGMAQFFQGLGTAGQAVGHVVLGATGALLSTVHGFTTFLSNP
# notes: also called VZV gB
# B3: HAVCR1 expressed on cells (gD-GPI construct or full-length protein) (receptor)
# chain: SVKVGGEAGPSVTLPCHYSGAVTSMCWNRGSCSLFTCQNGIVWTNGTHVTYRKDTRYKLLGDLSRRDVSLTIENTAVSDSGVYCCRVEHRGWFNDMKITVSLEIVPPKVTTTPIVTTVPTVTTVRTSTTVPTTTTVPMTTVPTTTVPTTMSIPTTTTVLTTMTVSTTTSVPTTTSIPTTTSVPVTTTVSTFVPPMPLPRQNHEPVATSPSSPQPAETHPTTLQGAIRREPTSSPLYSYTTDGNDTVTESSDGLWNNNQTQLFLEHSLLTANTTKGIYAGVCISVLVLLALLGVIIAKKYFFKKEVQQLSVSFSSLQIKALQNAVEKEVQAEDNIYIENSLYATD
# notes: whole, on cells
# B4: LILRB1 (in supernatants) (receptor)
# chain: GHLPKPTLWAEPGSVITQGSPVTLRCQGGQETQEYRLYREKKTALWITRIPQELVKKGQFPIPSITWEHAGRYRCYYGSDTAGRSESSDPLELVVTGAYIKPTLSAQPSPVVNSGGNVILQCDSQVAFDGFSLCKEGEDEHPQCLNSQPHARGSSRAIFSVGPVSPSRRWWYRCYAYDSNSPYEWSLPSDLLELLVLGVSKKPSLSVQPGPIVAPEETLTLQCGSDAGYNRFVLYKDGERDFLQLAGAQPQAGLSQANFTLGPVSRSYGGQYRCYGAHNLSSEWSAPSDPLDILIAGQFYDRVSLSVQPGPTVASGENVTLLCQSQGWMQTFLLTKEGAADDPWRLRSTYQSQKYQAEFPMGPVTSAHAGTYRCYGSQSSKPYLLTHPSDPLELVVSGPSGGPSSPTTGPTSTSGPEDQPLTPTGSDPQSGLGRHLGV
# B5: FLRT3 (in supernatants) (receptor)
# chain: KSCPSVCRCDAGFIYCNDRFLTSIPTGIPEDATTLYLQNNQINNAGIPSDLKNLLKVERIYLYHNSLDEFPTNLPKYVKELHLQENNIRTITYDSLSKIPYLEELHLDDNSVSAVSIEEGAFRDSNYLRLLFLSRNHLSTIPWGLPRTIEELRLDDNRISTISSPSLQGLTSLKRLVLDGNLLNNHGLGDKVFFNLVNLTELSLVRNSLTAAPVNLPGTNLRKLYLQDNHINRVPPNAFSYLRQLYRLDMSNNNLSNLPQGIFDDLDNITQLILRNNPWYCGCKMKWVRDWLQSLPVKVNVRGLMCQAPEKVRGMAIKDLNAELFDCKDSGIVSTIQITTAIPNTVYPAQGQWPAPVTKQPDIKNPKLTKDHQTTGSPSRKTITITVKSVTSDTIHISWKLALPMTALRLSWLKLGHSPAFGSITETIVTGERSEYLVTALEPDSPYKVCMVPMETSNLYLFDETPVCIETETAPLRMYNPTTTLNREQEKEPYKNPNLP
# Columns and labels:
# [1] = molecular target: T1, VZV protein gC, soluble (captured on …); test: cell-based immunofluorescence validation (FIGS. 14B and 22): soluble gC on cells with ICAM1
# [2] = molecular target: T2, MUSK expressed on cells (gD-GPI …); test: cell-based immunofluorescence validation (FIG. 15): gB on beads or in supernatants, MUSK on cells
# [3] = molecular target: B2; test: cell-based immunofluorescence validation (FIG. 16): gB on beads or in supernatants, HAVCR1 on cells
# [4] = molecular target: T3, HHV8 protein KCP expressed on cells …; test: cell-based immunofluorescence validation (FIG. 17): receptor in supernatants, KCP on cells
binder,measurement,setting,value
B1,binding result,[1],binds
B2,binding result,[2],binds
B3,binding result,[3],binds
B4,binding result,[4],binds
B5,binding result,[4],binds
